Data: patent publication US12281162 (LANOVA MEDICINES DEVELOPMENT, dated 2025)
Where a chain is given by its changes, count along the chain named.

B1: 58-H1L1 (antibody, V domains shown)
VH: QVQLVQSGAEVKKPGASVKVSCKASGYSFTGYYIHWVRQAPGQGLEWMGYISSYNAATSFNQKFKGRVTMTRDTSTSTVYMELSSLRSEDTAVYYCARTELRGPWFAYWGQGTLVTVSS
VL: DIQMTQSPSSLSASVGDRVTITCSASSSVSYMNWYQQKPGKAPKLLIYDTSKLASGVPSRFSGSGSGTDFTLTISSLQPEDFATYYCQQWSNNPLTFGQGTKLEIK
notes: humanized 58F9G10, VH v1 x VL v1
B2: 58-H3L1 (antibody, V domains shown)
VH: B1 VH with R38K, M48I, M70F, R72V, L83F
VL: B1 VL
notes: humanized 58F9G10, VH v3 x VL v1
B3: 58-H2L3 (antibody, V domains shown)
VH: B1 VH with M48I, M70F, R72V
VL: B1 VL with I2T, M4L, I21M, L45R, F70Y, L77M
notes: humanized 58F9G10, VH v2 x VL v3
B4: 58-H4L1 (antibody, V domains shown)
VH: B1 VH with V20I, R38K, M48I, V68A, M70F, R72V, V79A, L83F, T91S
VL: B1 VL
notes: humanized 58F9G10, VH v4 x VL v1
B5: 58-H4L3 (antibody, V domains shown)
VH: B1 VH with V20I, R38K, M48I, V68A, M70F, R72V, V79A, L83F, T91S
VL: B1 VL with I2T, M4L, I21M, L45R, F70Y, L77M
notes: humanized 58F9G10, VH v4 x VL v3
B6: 58-H3L2 (antibody, V domains shown)
VH: B1 VH with R38K, M48I, M70F, R72V, L83F
VL: B1 VL with I2T, L45R, F70Y
notes: humanized 58F9G10, VH v3 x VL v2
B7: 58-H4L2 (antibody, V domains shown)
VH: B1 VH with V20I, R38K, M48I, V68A, M70F, R72V, V79A, L83F, T91S
VL: B1 VL with I2T, L45R, F70Y
notes: humanized 58F9G10, VH v4 x VL v2
B8: 58-H3L3 (antibody, V domains shown)
VH: B1 VH with R38K, M48I, M70F, R72V, L83F
VL: B1 VL with I2T, M4L, I21M, L45R, F70Y, L77M
notes: humanized 58F9G10, VH v3 x VL v3
B9: 37-H2L2 (antibody, V domains shown)
VH: EVQLVESGGGLVQPGGSLRLSCAASGFTFSDYWMNWVRQSPGKGLEWVAEIRLKSNNYATHYAESVKGRFTISRDNAKSSLYLQMNSLRAEDTAVYYCTRPLLWFRRYYAMDYWGQGTLVTVSS
VL: DIQMTQSPSSLSASVGDRVTITCSASQGISNYLNWYQQKPGKTVKLLIYYTSSLHSGVPSRFSGSGSGTDYTLTISSLQPEDFATYYCQQYSKLPFTFGQGTKLEIK
notes: humanized 37B9C4, VH v2 x VL v2
B10: 37-H1L2 (antibody, V domains shown)
VH: B9 VH with S40A, S79N, T99A
VL: B9 VL
notes: humanized 37B9C4, VH v1 x VL v2
B11: 37-H2L3 (antibody, V domains shown)
VH: B9 VH
VL: B9 VL with V19I, Q100S
notes: humanized 37B9C4, VH v2 x VL v3
B12: 37-H2L1 (antibody, V domains shown)
VH: B9 VH
VL: B9 VL with T43A, V44P, Y71F
notes: humanized 37B9C4, VH v2 x VL v1
B13: 37-H3L1 (antibody, V domains shown)
VH: B9 VH with N76D, A77S, L81V
VL: B9 VL with T43A, V44P, Y71F
notes: humanized 37B9C4, VH v3 x VL v1
B14: 37-H1L3 (antibody, V domains shown)
VH: B9 VH with S40A, S79N, T99A
VL: B9 VL with V19I, Q100S
notes: humanized 37B9C4, VH v1 x VL v3
B15: 37-H3L2 (antibody, V domains shown)
VH: B9 VH with N76D, A77S, L81V
VL: B9 VL
notes: humanized 37B9C4, VH v3 x VL v2
B16: 37-H3L3 (antibody, V domains shown)
VH: B9 VH with N76D, A77S, L81V
VL: B9 VL with V19I, Q100S
notes: humanized 37B9C4, VH v3 x VL v3
B17: 34-H2L2 (antibody, V domains shown)
VH: EVQLVESGGGLVKPGGSLRLSCAASGFTFSSYGMSWVRQTPGKGLEWVATISSGGSYTYYPDSVKGRFTISRDNAKNSLYLQMSSLRAEDTAVYYCARQGGDAMDYWGQGTLVTVSS
VL: DIQMTQSPSSLSASVGDRVTITCRASQSINNNLHWYQQKPGKAPKLLIYYASQSISGIPSRFSGSGSGTDFTLTISSVQPEDFATYFCQQSNSRLTFGGGTKVEIK
notes: humanized 34D3H1, VH v2 x VL v2
B18: 34-H1L4 (antibody, V domains shown)
VH: B17 VH with T40A, A49S, S84N
VL: B17 VL with Q3V, M4L, A13V, I21L, A43S, V103L
notes: humanized 34D3H1, VH v1 x VL v4
B19: 34-H1L2 (antibody, V domains shown)
VH: B17 VH with T40A, A49S, S84N
VL: B17 VL
notes: humanized 34D3H1, VH v1 x VL v2
B20: 34-H3L1 (antibody, V domains shown)
VH: B17 VH with Q3H, G44R, Y80N
VL: B17 VL with I58V, V78L, F87Y
notes: humanized 34D3H1, VH v3 x VL v1
B21: 34-H3L2 (antibody, V domains shown)
VH: B17 VH with Q3H, G44R, Y80N
VL: B17 VL
notes: humanized 34D3H1, VH v3 x VL v2
B22: 34-H2L3 (antibody, V domains shown)
VH: B17 VH
VL: B17 VL with M4L, A43S, V103L
notes: humanized 34D3H1, VH v2 x VL v3
B23: 34-H3L3 (antibody, V domains shown)
VH: B17 VH with Q3H, G44R, Y80N
VL: B17 VL with M4L, A43S, V103L
notes: humanized 34D3H1, VH v3 x VL v3
B24: 34-H1L3 (antibody, V domains shown)
VH: B17 VH with T40A, A49S, S84N
VL: B17 VL with M4L, A43S, V103L
notes: humanized 34D3H1, VH v1 x VL v3
B25: 34-H3L4 (antibody, V domains shown)
VH: B17 VH with Q3H, G44R, Y80N
VL: B17 VL with Q3V, M4L, A13V, I21L, A43S, V103L
notes: humanized 34D3H1, VH v3 x VL v4
B26: 34-H2L1 (antibody, V domains shown)
VH: B17 VH
VL: B17 VL with I58V, V78L, F87Y
notes: humanized 34D3H1, VH v2 x VL v1
B27: 34-H2L4 (antibody, V domains shown)
VH: B17 VH
VL: B17 VL with Q3V, M4L, A13V, I21L, A43S, V103L
notes: humanized 34D3H1, VH v2 x VL v4

target: T1, human G-protein-coupled receptor family C group 5 member D (GPRC5D) (human, UniProt Q9NZD1 1-345); experiment: FACS, CHO-K1/human GPRC5D
T1 construct: whole, on cells; also called human GPRC5D protein
T1 sequence (Q9NZD1 whole entry): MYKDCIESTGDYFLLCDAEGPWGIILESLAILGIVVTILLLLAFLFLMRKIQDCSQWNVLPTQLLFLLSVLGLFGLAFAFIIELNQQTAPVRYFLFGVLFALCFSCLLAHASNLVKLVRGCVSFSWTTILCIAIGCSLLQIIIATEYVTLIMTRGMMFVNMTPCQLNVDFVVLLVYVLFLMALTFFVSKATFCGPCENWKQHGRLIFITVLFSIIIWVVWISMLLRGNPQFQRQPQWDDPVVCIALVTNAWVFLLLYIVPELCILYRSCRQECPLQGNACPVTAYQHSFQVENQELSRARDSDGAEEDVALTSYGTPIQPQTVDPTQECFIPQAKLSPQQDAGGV

| Bottom | LogEC50 | Span | Top | Binder |
| --- | --- | --- | --- | --- |
| 275 | 0.579 | 99200 | 99500 | B1 |
| 75.4 | 0.612 | 104000 | 104000 | B2 |

target: T1, human G-protein-coupled receptor family …; experiment: FACS, CHO-K1/GPRC5D

| Bottom | LogEC50 | Span | Top | Binder |
| --- | --- | --- | --- | --- |
| 15000 | 0.252 | 92800 | 108000 | B1 |
| 1230 | 0.27 | 90500 | 91700 | B3 |
| 4990 | 0.365 | 99600 | 105000 | B4 |
| 6250 | 0.287 | 96400 | 103000 | B5 |
| 5980 | 0.374 | 99500 | 105000 | B6 |
| 4600 | 0.341 | 100000 | 105000 | B7 |
| 9890 | -0.192 | 93800 | 104000 | B2 |
| 4020 | 0.318 | 93700 | 97700 | B8 |

target: T1, human G-protein-coupled receptor family …; experiment: FACS, NCI-H929 cells

| Bottom | LogEC50 | Span | Top | Binder |
| --- | --- | --- | --- | --- |
| 281 | 0.165 | 13200 | 13500 | B1 |
| 276 | 0.3 | 13700 | 13900 | B2 |

target: T1, human G-protein-coupled receptor family …; experiment: FACS, CHO-K1/GPRC5D; remark: another data set of the same source

| Bottom | LogEC50 | Span | Top | Binder |
| --- | --- | --- | --- | --- |
| 9380 | 0.345 | 166000 | 175000 | B9 |
| 8850 | 0.35 | 173000 | 182000 | B10 |
| 8050 | 0.333 | 160000 | 168000 | B11 |
| 9180 | 0.351 | 166000 | 175000 | B12 |
| 6370 | 0.292 | 173000 | 179000 | B13 |
| 10400 | 0.233 | 163000 | 173000 | B14 |
| 9190 | 0.315 | 170000 | 179000 | B15 |
| 7780 | 0.285 | 173000 | 181000 | B16 |

target: T1, human G-protein-coupled receptor family …; experiment: FACS, CHO-K1/GPRC5D; remark: another data set of the same source

| Bottom | LogEC50 | Span | Top | Binder |
| --- | --- | --- | --- | --- |
| 8740 | 0.625 | 170000 | 179000 | B17 |
| 10300 | 0.6 | 179000 | 189000 | B18 |
| 13900 | 0.584 | 168000 | 182000 | B19 |
| 11100 | 0.521 | 167000 | 178000 | B20 |
| 9040 | 0.646 | 171000 | 180000 | B21 |
| 7060 | 0.583 | 179000 | 186000 | B22 |
| 9120 | 0.651 | 184000 | 193000 | B23 |
| 10600 | 0.573 | 175000 | 186000 | B24 |
| 12800 | 0.598 | 180000 | 193000 | B25 |
| 7850 | 0.619 | 179000 | 187000 | B26 |
| 4390 | 0.609 | 188000 | 192000 | B27 |
